Experimental data taken from publication PMC2829124.

Substrate: CCCCCCCCCCCCCC(=O)SCCNC(=O)CCNC(=O)[C@H](O)C(C)(C)COP(=O)(O)OP(=O)(O)OC[C@H]1O[C@@H](n2cnc3c(N)ncnc32)[C@H](O)[C@@H]1OP(=O)(O)O
Assay: purified protein
Settings: fatty acyl-CoA binding site

B1: N-Myristoyltransferase (LdNMT) (Leishmania donovani) (protein)
chain: MSRNPSNSDAAHAFWSTQPVPQTEDETEKIVFAGPMDEPKTVADIPEEPYPIASTFEWWTPNMEAADDIHAIYELLRDNYVEDDDSMFRFNYSEEFLQWALCPPSYIPDWHVAVRRKADKKLLAFIAGVPVTLRMGTPKYMKVKAQEKGQEEEAAKYDAPRHICEINFLCVHKQLREKRLAPILIKEVTRRVNRTNVWQAVYTAGVLLPTPYASGQYFHRSLNPEKLVEIRFSGIPAQYQKFQNPMAMLKRNYQLPNAPKNSGLREMKPSDVPQVRRILMNYLDNFDVGPVFSDAEISHYLLPRDGVVFTYVVENDKKVTDFFSFYRIPSTVIGNSNYNILNAAYVHYYAATSMPLHQLILDLLIVAHSRGFDVCNMVEILDNRSFVEQLKFGAGDGHLRYYFYNWAYPKIKPSQVALVML
B1 gave a Km of 0.0175 ± 0.0029 µM.
